# B1: Ig gamma-2 chain C region (protein)
# chain: ASTKGPSVFPLAPCSRSTSESTAALGCLVKDYFPEPVTVSWNSGALTSGVHTFPAVLQSSGLYSLSSVVTVPSSNFGTQTYTCNVDHKPSNTKVDKTVERKCCVECPPCPAPPVAGPSVFLFPPKPKDTLMISRTPEVTCVVVDVSHEDPEVQFNWYVDGVEVHNAKTKPREEQFNSTFRVVSVLTVVHQDWLNGKEYKCKVSNKGLPAPIEKTISKTKGQPREPQVYTLPPSREEMTKNQVSLTCLVKGFYPSDISVEWESNGQPENNYKTTPPMLDSDGSFFLYSKLTVDKSRWQQGNVFSCSVMHEALHNHYTQKSLSLSPGK
# B2: Ig lambda chain V-III region LOI (protein)
# chain: VTSYVLTQPPSVSVAPGQTARITCGGNNIGSKSVHWYQQKPGQAPVLVVYDDSDRPSGIPERFSGSNSGNTATLTISRVEAGDEADYYCQVWDSSSDHPT
# B3: Complement C2 (protein)
# chain: APSCPQNVNISGGTFTLSHGWAPGSLLTYSCPQGLYPSPASRLCKSSGQWQTPGATRSLSKAVCKPVRCPAPVSFENGIYTPRLGSYPVGGNVSFECEDGFILRGSPVRQCRPNGMWDGETAVCDNGAGHCPNPGISLGAVRTGFRFGHGDKVRYRCSSNLVLTGSSERECQGNGVWSGTEPICRQPYSYDFPEDVAPALGTSFSHMLGATNPTQKTKESLGRKIQIQRSGHLNLYLLLDCSQSVSENDFLIFKESASLMVDRIFSFEINVSVAIITFASEPKVLMSVLNDNSRDMTEVISSLENANYKDHENGTGTNTYAALNSVYLMMNNQMRLLGMETMAWQEIRHAIILLTDGKSNMGGSPKTAVDHIREILNINQKRNDYLDIYAIGVGKLDVDWRELNELGSKKDGERHAFILQDTKALHQVFEHMLDVSKLTDTICGVGNMSANASDQERTPWHVTIKPKSQETCRGALISDQWVLTAAHCFRDGNDHSLWRVNVGDPKSQWGKEFLIEKAVISPGFDVFAKKNQGILEFYGDDIALLKLAQKVKMSTHARPICLPCTMEANLALRRPQGSTCRDHENELLNKQSVPAHFVALNGSKLNINLKMGVEWTSCAEVVSQEKTMFPNLTDVREVVTDQFLCSGTQEDESPCKGESGGAVFLERRFRFFQVGLVSWGLYNPCLGSADKNSRKRAPRSKVPPPRDFHINLFRMQPWLRQHLGDVLNFLPL
# B4: Apolipoprotein C-II (protein)
# chain: TQQPQQDEMPSPTFLTQVKESLSSYWESAKTAAQNLYEKTYLPAVDEKLRDLYSKSTAAMSTYTGIFTDQVLSVLKGEE
# B5: Desmoglein-1 (protein)
# chain: EWIKFAAACREGEDNSKRNPIAKIHSDCAANQQVTYRISGVGIDQPPYGIFVINQKTGEINITSIVDREVTPFFIIYCRALNSMGQDLERPLELRVRVLDINDNPPVFSMATFAGQIEENSNANTLVMILNATDADEPNNLNSKIAFKIIRQEPSDSPMFIINRNTGEIRTMNNFLDREQYGQYALAVRGSDRDGGADGMSAECECNIKILDVNDNIPYMEQSSYTIEIQENTLNSNLLEIRVIDLDEEFSANWMAVIFFISGNEGNWFEIEMNERTNVGILKVVKPLDYEAMQSLQLSIGVRNKAEFHHSIMSQYKLKASAISVTVLNVIEGPVFRPGSKTYVVTGNMGSNDKVGDFVATDLDTGRPSTTVRYVMGNNPADLLAVDSRTGKLTLKNKVTKEQYNMLGGKYQGTILSIDDNLQRTCTGTININIQSFGNDDRTNTEPNTKITTNTGRQESTSSTNYDTSTTSTDSSQVYSSEPGNGAKDLLSDNVHFGPAGIGLLIMGFLVLGLVPFLMICCDCGGAPRSAAGFEPVPECSDGAIHSWAVEGPQPEPRDITTVIPQIPPDNANIIECIDNSGVYTNEYGGREMQDLGGGERMTGFELTEGVKTSGMPEICQEYSGTLRRNSMRECREGGLNMNFMESYFCQKAYAYADEDEGRPSNDCLLIYDIEGVGSPAGSVGCCSFIGEDLDDSFLDTLGPKFKKLADISLGKESYPDLDPSWPPQSTEPVCLPQETEPVVSGHPPISPHFGTTTVISESTYPSGPGVLHPKPILDPLGYGNVTVTESYTTSDTLKPSVHVHDNRPASNVVVTERVVGPISGADLHGMLEMPDLRDGSNVIVTERVIAPSSSLPTSLTIHHPRESSNVVVTERVIQPTSGMIGSLSMHPELANAHNVIVTERVVSGAGVTGISGTTGISGGIGSSGLVGTSMGAGSGALSGAGISGGGIGLSSLGGTASIGHMRSSSDHHFNQTIGSASPSTARSRITKYSTVQYSK
# B6: Isoform 2 of N-acetylmuramoyl-L-alanine amidase (protein)
# chain: SLPLLMDSVIQALAELEQKVPAAKTRHTASAWLMSAPNSGPHNRLYHFLLGAWSLNATELDPCPLSPELLGLTKEVARHDVREGKEYGVVLAPDGSTVAVEPLLAGLEAGLQGRRVINLPLDSMAAPWETGDTFPDVVAIAPDVRATSSPGLRDGSPDVTTADIGANTPDATKGCPDVQASLPDAKAKSPPTMVDSLLAVTLAGNLGLTFLRGSQTQSHPDLGTEGCWDQLSAPRTFTLLDPKASLLTMAFLNGALDGVILGDYLSRTPEPRPSLSHLLSQYYGAGVARDPGFRSNFRRQNGAALTSASILAQQVWGTLVLLQRLEPVHLQLQCMSQEQLAQVAANATKEFTEAFLGCPAIHPRCRWGAAPYRGRPKLLQLPLGFLYVHHTYVPAPPCTDFTRCAANMRSMQRYHQDTQGWGDIGYSFVVGSDGYVYEGRGWHWVGAHTLGHNSRGFGVAIVGNYTAALPTEAALRTVRDTLPSCAVRAGLLRPDYALLGHRQLVRTDCPGDALFDLLRTWPHFTAVSLRSLHYTARRPSVYTSSTRPLPPACNSCARTASARPPTSRRHVYSGNLGPAFAGHSAGNIPDPVTSAYAASAQPQTQPACPFPSS
# Molecular target: T1, Abeta-42 plaque particles (Homo sapiens, UniProt P05067)
# T1 construct: Abeta 1-42
# Assay: Mass spectroscopy proteomics, semi-quantitative binding affinity of serum proteins (plaqueproteome, Table 2)
# Settings: higher number = stronger affinity
# Summary of the method: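 AD patient serum or plasma (50% in PBS) was incubated with Abeta-42 aggregates (30 μg) for 1 h at 37 °C, then stained with Thioflavin S for 30 min. Labeled particles were FACS-sorted, trypsin/Lys-C digested overnight and analyzed by MS/MS. Sequest searched human UniProt; Scaffold/Protein Prophet validated the identifications.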
row,Molecule,Semi-quantitative analysis of proteins binding to different plaque particles: Abeta-42
1,B1,11
2,B2,2
3,B3,0
4,B4,0
5,B5,5
6,B6,0

# Test system: High Density cholesterol (Chl Large) plaque particles
# Assay: as above
# Design: species or system human
# Settings: higher number = stronger affinity
# Summary of the method: (§1)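 Serum or plasma from atherosclerotic subjects, diluted to 50% in PBS, was incubated with cholesterol aggregates (30 μg per 1 mL reaction) at 37° C for 1 hr. Small and large cholesterol plaque particles were sorted by flow cytometry gating, trypsin-digested and analysed by MS/MS against a human UniProt database.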
row,Molecule,Semi-quantitative analysis of proteins binding to different plaque particles: Chl Large
1,B1,12
2,B2,1
3,B3,0
4,B4,0
5,B5,0
6,B6,4

# Test system: Low density cholesterol (Chl small) plaque particles
# Assay: as above
# Design: species or system human
# Settings: higher number = stronger affinity
# Summary of the method: as §1
row,Molecule,Semi-quantitative analysis of proteins binding to different plaque particles: Chl small
1,B1,14
2,B2,1
3,B3,1
4,B4,1
5,B5,0
6,B6,1

# Molecular target: T2, alpha-synuclein plaque particles (Homo sapiens, UniProt P37840)
# T2 construct: 140 amino acids polypeptide
# Assay: as above
# Settings: higher number = stronger affinity
# Summary of the method: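 AD-subject plasma or serum (800 μL of 50%) mixed with 30 μg preformed alpha-synuclein aggregates for 1 h at 37 °C; Thioflavin S-positive particles isolated by flow sorting. After reduction, acrylamide alkylation and overnight tryptic digestion, serum proteins identified by MS/MS with Sequest and Scaffold.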
row,Molecule,Semi-quantitative analysis of proteins binding to different plaque particles: Synuclein
1,B1,10
2,B2,2
3,B3,0
4,B4,1
5,B5,0
6,B6,2

# Test system: Tau plaque particles
# Assay: as above
# Design: species or system human
# Settings: higher number = stronger affinity
# Summary of the method: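 Synthetic Tau-74 and Tau-275 peptides (1 mg/mL PBS, 37° C, 2 h) aggregated; 30 μg aggregates incubated with 50% serum/plasma 1 h at 37° C, stained with Thioflavin S, and plaque particles sorted by flow cytometry. Bound proteins trypsin-digested and identified by MS/MS against human UniProt.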
row,Molecule,Semi-quantitative analysis of proteins binding to different plaque particles: Tau
1,B1,11
2,B2,1
3,B3,0
4,B4,0
5,B5,0
6,B6,5

# Source: US9618524B2, “Method, composition, isolation and identification of a plaque particle and related biomarker” (Plaxgen Inc., priority 2012, dated 2017)
